# Data taken from PMC4887914, “The Sp1-mediaded allelic regulation of MMP13 expression by an ESCC susceptibility SNP rs2252070”.
# B1: MMP13 rs2252070G probe (dsDNA)
# DNA 1: CCTTCAAGTGACTGGGAAGTGGAAACCT
# DNA 2: AGGTTTCCACTTCCCAGTCACTTGAAGG
# Target: Sp1 (UniProt P08047 2-785)
# Assay: EMSA; recombinant Sp1; supershift with Sp1 antibody; LightShift Chemiluminescent EMSA kit (Pierce), 25 °C, 20 min, 6% PAGE; 100-fold unlabeled competitor; buffer, salt and pH not stated
# Settings: protein: commercial; label: 3' biotin; blunt
# Sp1, sequence (P08047 2-785): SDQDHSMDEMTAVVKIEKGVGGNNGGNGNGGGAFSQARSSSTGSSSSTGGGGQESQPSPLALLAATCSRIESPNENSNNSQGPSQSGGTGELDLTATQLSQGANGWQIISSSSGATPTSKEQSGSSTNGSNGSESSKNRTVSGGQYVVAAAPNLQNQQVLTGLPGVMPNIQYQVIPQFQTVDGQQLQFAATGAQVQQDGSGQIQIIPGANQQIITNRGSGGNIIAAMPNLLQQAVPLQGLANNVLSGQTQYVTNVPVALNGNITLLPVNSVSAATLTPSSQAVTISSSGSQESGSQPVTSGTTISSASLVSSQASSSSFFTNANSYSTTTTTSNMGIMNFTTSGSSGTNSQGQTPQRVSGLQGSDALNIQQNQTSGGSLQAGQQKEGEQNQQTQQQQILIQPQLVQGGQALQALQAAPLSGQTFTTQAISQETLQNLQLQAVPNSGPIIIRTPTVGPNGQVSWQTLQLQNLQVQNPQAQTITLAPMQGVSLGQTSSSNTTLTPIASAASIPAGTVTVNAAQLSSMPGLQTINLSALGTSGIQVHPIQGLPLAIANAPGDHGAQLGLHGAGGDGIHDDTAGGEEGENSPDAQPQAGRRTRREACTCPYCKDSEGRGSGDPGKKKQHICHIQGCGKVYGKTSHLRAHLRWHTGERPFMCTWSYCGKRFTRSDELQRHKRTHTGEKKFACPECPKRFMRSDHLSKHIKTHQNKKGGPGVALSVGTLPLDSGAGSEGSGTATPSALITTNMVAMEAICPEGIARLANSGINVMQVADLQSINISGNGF
binder,measurement,value
B1,binding result,binds
